In PMC5724361 (ACS chemical biology, 2017):

Key:
[1] = biological target: T1, Aβ1–40 (Homo sapiens, UniProt P05067); experiment: IM-MS analysis of complex formation with Aβ1–40; type: binding; conditions: alanine substituted variants of leucine enkephalin
[2] = biological target: T1, Aβ1–40; conditions: cited from earlier work
[3] = test system: Aβ; conditions: incubated in excess with leucine enkephalin, compared with control; cited from earlier work

T1 sequence (P05067 672-711 limits assumed): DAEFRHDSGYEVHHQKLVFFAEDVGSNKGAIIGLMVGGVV

Row | Substance | Complex formation with Aβ1–40 (IM-MS signal) [1] | Stoichiometric ratios of Aβ:leucine enkephalin complexes [2] | Aβ fibrillation (TEM and gel) [3]
1 | AGGFL: alanine substituted variant of leucine enkephalin (Leu-enkephalin; UniProt P01210 230-234, looked up, variant Y1A) | complexes formed |  | 
2 | Leucine enkephalin acetate hydrate |  | 1:1 to 1:3, and from 2:1 to 2:3 | decreased Aβ fibrillation
3 | YGAFL: alanine substituted variant of leucine enkephalin (Leu-enkephalin; UniProt P01210 230-234, looked up, variant G3A) | complexes formed |  | 
4 | YGGAL: alanine substituted variant of leucine enkephalin (Leu-enkephalin; UniProt P01210 230-234, looked up, variant F4A) | no measureable complex signals |  | 
5 | YGGFA: alanine substituted variant of leucine enkephalin (Leu-enkephalin; UniProt P01210 230-234, looked up, variant L5A) | no measureable complex signals |  | 
